Molecular target: LRP1 receptor on human astrocytoma 1321N1 cells (human) (UniProt Q07954)
Test: cell-based or functional assay

UniProt Q07954, sequence (Q07954 20-4544): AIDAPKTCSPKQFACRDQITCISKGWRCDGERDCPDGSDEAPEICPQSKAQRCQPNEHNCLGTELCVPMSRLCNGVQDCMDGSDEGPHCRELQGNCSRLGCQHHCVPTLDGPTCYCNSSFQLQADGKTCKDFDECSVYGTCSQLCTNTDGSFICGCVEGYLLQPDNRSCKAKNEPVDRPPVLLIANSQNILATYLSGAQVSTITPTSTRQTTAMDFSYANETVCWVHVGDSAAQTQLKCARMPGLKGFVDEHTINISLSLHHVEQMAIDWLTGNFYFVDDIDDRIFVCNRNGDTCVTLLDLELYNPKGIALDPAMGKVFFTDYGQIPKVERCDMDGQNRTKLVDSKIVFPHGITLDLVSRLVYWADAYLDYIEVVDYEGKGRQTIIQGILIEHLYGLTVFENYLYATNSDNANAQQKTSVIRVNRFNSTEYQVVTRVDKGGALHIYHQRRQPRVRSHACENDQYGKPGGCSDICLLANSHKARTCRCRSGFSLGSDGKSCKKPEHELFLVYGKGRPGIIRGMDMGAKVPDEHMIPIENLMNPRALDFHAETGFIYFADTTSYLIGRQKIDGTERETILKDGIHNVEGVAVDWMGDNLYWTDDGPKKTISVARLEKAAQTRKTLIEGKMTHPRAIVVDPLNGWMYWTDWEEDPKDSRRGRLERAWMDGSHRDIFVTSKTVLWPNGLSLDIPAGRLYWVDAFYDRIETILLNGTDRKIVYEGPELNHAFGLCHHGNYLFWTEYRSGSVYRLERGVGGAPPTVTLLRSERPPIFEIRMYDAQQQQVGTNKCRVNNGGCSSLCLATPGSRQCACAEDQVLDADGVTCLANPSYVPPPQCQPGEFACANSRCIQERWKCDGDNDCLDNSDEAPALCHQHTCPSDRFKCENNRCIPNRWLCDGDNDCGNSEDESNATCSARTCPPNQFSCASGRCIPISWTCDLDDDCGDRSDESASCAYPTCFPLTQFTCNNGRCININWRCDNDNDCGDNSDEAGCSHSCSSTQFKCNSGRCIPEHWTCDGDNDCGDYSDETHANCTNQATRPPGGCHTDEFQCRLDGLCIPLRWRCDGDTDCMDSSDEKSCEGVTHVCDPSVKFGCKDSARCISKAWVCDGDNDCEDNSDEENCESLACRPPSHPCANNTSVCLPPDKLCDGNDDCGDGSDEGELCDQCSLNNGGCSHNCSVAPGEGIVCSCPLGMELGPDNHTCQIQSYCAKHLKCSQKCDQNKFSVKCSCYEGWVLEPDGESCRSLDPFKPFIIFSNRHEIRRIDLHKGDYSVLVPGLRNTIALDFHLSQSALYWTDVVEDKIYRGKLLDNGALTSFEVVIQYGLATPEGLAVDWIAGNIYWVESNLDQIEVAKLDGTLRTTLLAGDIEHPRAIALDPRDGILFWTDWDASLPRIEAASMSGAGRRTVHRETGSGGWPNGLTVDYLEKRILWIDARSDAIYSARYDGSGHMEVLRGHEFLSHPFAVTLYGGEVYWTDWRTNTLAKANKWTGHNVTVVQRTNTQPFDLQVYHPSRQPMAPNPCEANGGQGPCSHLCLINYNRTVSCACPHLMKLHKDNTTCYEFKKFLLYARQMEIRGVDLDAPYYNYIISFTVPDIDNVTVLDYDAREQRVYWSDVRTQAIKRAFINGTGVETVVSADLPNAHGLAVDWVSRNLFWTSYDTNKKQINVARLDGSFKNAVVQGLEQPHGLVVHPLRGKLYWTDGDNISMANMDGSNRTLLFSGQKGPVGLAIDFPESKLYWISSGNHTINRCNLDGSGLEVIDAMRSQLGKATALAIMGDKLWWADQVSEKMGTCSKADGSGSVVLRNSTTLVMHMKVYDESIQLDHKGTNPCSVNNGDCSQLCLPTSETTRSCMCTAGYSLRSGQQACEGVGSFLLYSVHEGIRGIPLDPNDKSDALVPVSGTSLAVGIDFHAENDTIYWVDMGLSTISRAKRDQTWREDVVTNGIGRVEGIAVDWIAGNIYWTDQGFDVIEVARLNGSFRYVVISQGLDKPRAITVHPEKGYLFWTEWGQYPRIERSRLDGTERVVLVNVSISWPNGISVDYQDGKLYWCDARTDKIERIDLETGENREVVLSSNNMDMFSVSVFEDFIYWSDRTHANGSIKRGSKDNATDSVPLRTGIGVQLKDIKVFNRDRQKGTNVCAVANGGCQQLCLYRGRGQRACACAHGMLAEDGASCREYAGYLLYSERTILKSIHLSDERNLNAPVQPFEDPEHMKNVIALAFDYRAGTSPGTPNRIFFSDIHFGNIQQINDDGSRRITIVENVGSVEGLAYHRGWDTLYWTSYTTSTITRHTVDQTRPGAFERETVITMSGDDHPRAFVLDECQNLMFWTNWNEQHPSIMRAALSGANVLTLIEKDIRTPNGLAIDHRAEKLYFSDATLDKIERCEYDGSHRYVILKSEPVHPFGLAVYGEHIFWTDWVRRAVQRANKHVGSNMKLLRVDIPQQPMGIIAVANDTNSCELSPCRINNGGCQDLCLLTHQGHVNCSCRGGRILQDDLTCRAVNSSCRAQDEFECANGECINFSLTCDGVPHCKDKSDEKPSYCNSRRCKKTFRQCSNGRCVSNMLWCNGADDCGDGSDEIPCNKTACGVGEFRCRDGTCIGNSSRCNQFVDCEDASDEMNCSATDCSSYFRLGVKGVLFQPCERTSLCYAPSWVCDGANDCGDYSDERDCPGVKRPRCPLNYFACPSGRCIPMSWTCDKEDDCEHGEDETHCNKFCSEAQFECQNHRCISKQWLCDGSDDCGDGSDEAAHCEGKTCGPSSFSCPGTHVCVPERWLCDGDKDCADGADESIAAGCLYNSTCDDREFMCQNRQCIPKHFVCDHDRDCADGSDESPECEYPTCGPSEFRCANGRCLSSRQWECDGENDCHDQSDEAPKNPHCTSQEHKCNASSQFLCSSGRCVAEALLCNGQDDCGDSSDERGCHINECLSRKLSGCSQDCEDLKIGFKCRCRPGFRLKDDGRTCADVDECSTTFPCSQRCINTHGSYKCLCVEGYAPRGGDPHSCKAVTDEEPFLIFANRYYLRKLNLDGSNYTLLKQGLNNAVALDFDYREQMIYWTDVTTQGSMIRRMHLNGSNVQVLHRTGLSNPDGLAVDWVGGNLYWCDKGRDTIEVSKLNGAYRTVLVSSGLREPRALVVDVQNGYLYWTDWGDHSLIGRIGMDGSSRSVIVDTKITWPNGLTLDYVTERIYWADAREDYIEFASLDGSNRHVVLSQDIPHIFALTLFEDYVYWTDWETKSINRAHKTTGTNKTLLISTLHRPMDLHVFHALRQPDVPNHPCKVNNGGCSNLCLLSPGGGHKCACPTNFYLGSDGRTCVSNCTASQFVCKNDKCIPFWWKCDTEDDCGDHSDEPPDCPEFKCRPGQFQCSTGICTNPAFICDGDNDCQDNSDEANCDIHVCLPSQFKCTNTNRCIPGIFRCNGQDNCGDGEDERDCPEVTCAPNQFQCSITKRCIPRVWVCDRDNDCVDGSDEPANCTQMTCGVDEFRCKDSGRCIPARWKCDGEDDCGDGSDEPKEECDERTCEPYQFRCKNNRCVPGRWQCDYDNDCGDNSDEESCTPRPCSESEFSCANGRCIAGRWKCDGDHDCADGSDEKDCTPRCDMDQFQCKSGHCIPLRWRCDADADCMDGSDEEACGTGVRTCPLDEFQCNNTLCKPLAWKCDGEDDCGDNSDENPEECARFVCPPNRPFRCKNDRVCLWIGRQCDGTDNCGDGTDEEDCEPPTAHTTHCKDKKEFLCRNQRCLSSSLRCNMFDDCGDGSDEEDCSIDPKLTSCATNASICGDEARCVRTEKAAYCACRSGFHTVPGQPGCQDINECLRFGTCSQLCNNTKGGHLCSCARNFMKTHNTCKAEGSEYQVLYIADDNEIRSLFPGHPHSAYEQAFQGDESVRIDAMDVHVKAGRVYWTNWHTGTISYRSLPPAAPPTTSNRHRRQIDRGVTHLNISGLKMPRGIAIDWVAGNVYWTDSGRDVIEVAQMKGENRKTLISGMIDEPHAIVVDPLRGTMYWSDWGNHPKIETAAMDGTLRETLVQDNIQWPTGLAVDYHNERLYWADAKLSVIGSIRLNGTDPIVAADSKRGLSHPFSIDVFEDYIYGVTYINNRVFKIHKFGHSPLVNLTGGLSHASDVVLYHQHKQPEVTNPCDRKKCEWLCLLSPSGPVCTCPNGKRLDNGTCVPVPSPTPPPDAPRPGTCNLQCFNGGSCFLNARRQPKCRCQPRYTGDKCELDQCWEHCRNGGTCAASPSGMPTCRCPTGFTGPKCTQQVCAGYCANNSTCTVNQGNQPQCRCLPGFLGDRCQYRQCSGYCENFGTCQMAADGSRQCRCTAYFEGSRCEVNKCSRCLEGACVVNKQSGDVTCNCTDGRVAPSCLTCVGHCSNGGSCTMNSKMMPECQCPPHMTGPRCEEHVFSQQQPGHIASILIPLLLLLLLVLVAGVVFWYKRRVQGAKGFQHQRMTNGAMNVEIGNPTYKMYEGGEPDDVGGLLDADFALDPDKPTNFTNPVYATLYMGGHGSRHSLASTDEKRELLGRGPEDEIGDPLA

With “methylamine-transformed A2M* (activated alpha-2-macroglobulin) (from UniProt P01023 24-1474) (ligand)” the decrease in colony formation in soft agar (anchorage-independent growth), 1321N1 cells was > 50%.

Reference: patent EP2322204A1
